Tests used:
mUCP2 promoter = test: NHR-promoter luciferase screen, mUCP2 promoter; assay type: cell-based, mouse; settings: for Luc. act., normalized to lacZ / Normalized Luc. act., normalized to control: mUCP2 promoter reporter, co-transfected HR, with or without its ligand; for Normalized Luc. act., normalized to control: relative to control; for luciferase activity normalized to lacZ activity and to a control, mUCP2: mUCP2 promoter-luciferase, CV-1 cells, NHR +/- ligand, control = 1.00
How it was run: (§1)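 CV-1 cells were co-transfected with 50 ng NHR (homodimer or NHR/RXR heterodimer), 100 ng promoter-luciferase construct and 50 ng LacZ. Luciferase was normalized to LacZ and to a no-NHR/no-ligand control.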

Bmal1 promoter = test: NHR-promoter luciferase screen, Bmal1 promoter; assay type: cell-based, mouse; settings: for Luc. act., normalized to lacZ / Normalized Luc. act., normalized to control: Bmal1 promoter, HR component without or with ligand; for mBmal1 promoter reporter activity: transcription factor +/- ligand, control = 1.00
How it was run: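 CV-1 cells co-transfected with 50 ng NHR (V5H6-tagged, pcDNA3.1; homodimer or RXR heterodimer), 100 ng Bmal1 promoter-luciferase and 50 ng LacZ. Luciferase was normalized to LacZ and to a no-NHR/ligand control.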

mNPY promoter = test: NHR-promoter luciferase screen, mNPY promoter; assay type: cell-based, mouse; settings: for Results of assays of transcription factor (+/- ligand) with mNPY: Table 6d, luciferase activity relative to control (control = 1.00); for Luc. act., normalized to lacZ / Normalized Luc. act., normalized to control: mNPY promoter, HR component with or without ligand; for Normalized Luc. act., normalized to control: relative to control
How it was run: as §1

mAdiponectin promoter = test: NHR-promoter luciferase screen, mAdiponectin promoter; assay type: cell-based, mouse; settings: for Luc. act., normalized to lacZ / Normalized Luc. act., normalized to control: Adiponectin, HR component without or with its ligand; for mAdiponectin promoter reporter activity: transcription factor +/- ligand, control = 1.00
How it was run: as §1

mCAR promoter = test: NHR-promoter luciferase screen, mCAR promoter; assay type: cell-based, mouse; settings: for luciferase activity normalized to lacZ activity and to a control, mCAR: mCAR promoter-luciferase, CV-1 cells, NHR +/- ligand, control = 1.00; for Luc. act., normalized to lacZ / Normalized Luc. act., normalized to control: mCAR promoter, HR/ligand component
How it was run: as §1

hCAR promoter = test: NHR-promoter luciferase screen, hCAR promoter; assay type: cell-based, human; settings: for luciferase activity normalized to lacZ activity and to a control, hCAR: hCAR promoter-luciferase, CV-1 cells, NHR +/- ligand, control = 1.00; for Luc. act., normalized to lacZ / Normalized Luc. act., normalized to control: hCAR promoter, HR/ligand component
How it was run: as §1

Molecule | Luc. act., normalized to lacZ (mUCP2 promoter) | Normalized Luc. act., normalized to control (mUCP2 promoter) | luciferase activity normalized to lacZ activity and to a control, mUCP2 (mUCP2 promoter) | Luc. act., normalized to lacZ (Bmal1 promoter) | Normalized Luc. act., normalized to control (Bmal1 promoter) | mBmal1 promoter reporter activity (Bmal1 promoter) | Results of assays of transcription factor (+/- ligand) with mNPY (mNPY promoter) | Luc. act., normalized to lacZ (mNPY promoter) | Normalized Luc. act., normalized to control (mNPY promoter) | Luc. act., normalized to lacZ (mAdiponectin promoter) | Normalized Luc. act., normalized to control (mAdiponectin promoter) | mAdiponectin promoter reporter activity (mAdiponectin promoter) | luciferase activity normalized to lacZ activity and to a control, mCAR (mCAR promoter) | Luc. act., normalized to lacZ (mCAR promoter) | Normalized Luc. act., normalized to control (mCAR promoter) | luciferase activity normalized to lacZ activity and to a control, hCAR (hCAR promoter) | Luc. act., normalized to lacZ (hCAR promoter) | Normalized Luc. act., normalized to control (hCAR promoter)
CTF2: COUP-TF2 (NR2F2), cDNA driver (protein, UniProt P24468 1-414, looked up) COUP transcription factor 2: MAMVVSTWRDPQDEVPGSQGSQASQAPPVPGPPPGAPHTPQTPGQGGPASTPAQTAAGGQGGPGGPGSDKQQQQQHIECVVCGDKSSGKHYGQFTCEGCKSFFKRSVRRNLSYTCRANRNCPIDQHHRNQCQYCRLKKCLKVGMRREAVQRGRMPPTQPTHGQFALTNGDPLNCHSYLSGYISLLLRAEPYPTSRFGSQCMQPNNIMGIENICELAARMLFSAVEWARNIPFFPDLQITDQVALLRLTWSELFVLNAAQCSMPLHVAPLLAAAGLHASPMSADRVVAFMDHIRIFQEQVEKLKALHVDSAEYSCLKAIVLFTSDACGLSDVAHVESLQEKSQCALEEYVRSQYPNQPTRFGKLLLRLPSLRTVSSSVIEQLFFVRLVGKTPIETLIRDMLLSGSSFNWPYMAIQ | 90.4 | 0.8 | 0.82 | 29.5 | 1.9 | 1.89 | 0.65 | 54.7 | 0.7 | 75.1 | 1.2 | 1.20 | 0.51 | 19.3 | 0.5 | 0.23 | 7.2 | 0.2
CTF3: COUP-TF3 (NR2F6), cDNA driver (protein, UniProt P10588 1-404, looked up) Nuclear receptor subfamily 2 …: MAMVTGGWGGPGGDTNGVDKAGGYPRAAEDDSASPPGAASDAEPGDEERPGLQVDCVVCGDKSSGKHYGVFTCEGCKSFFKRSIRRNLSYTCRSNRDCQIDQHHRNQCQYCRLKKCFRVGMRKEAVQRGRIPHSLPGAVAASSGSPPGSALAAVASGGDLFPGQPVSELIAQLLRAEPYPAAAGRFGAGGGAAGAVLGIDNVCELAARLLFSTVEWARHAPFFPELPVADQVALLRLSWSELFVLNAAQAALPLHTAPLLAAAGLHAAPMAAERAVAFMDQVRAFQEQVDKLGRLQVDSAEYGCLKAIALFTPDACGLSDPAHVESLQEKAQVALTEYVRAQYPSQPQRFGRLLLRLPALRAVPASLISQLFFMRLVGKTPIETLIRDMLLSGSTFNWPYGSGQ | 54.4 | 0.5 | 0.49 | 21.2 | 1.4 | 1.35 | 0.48 | 40.6 | 0.5 | 71.0 | 1.1 | 1.13 | 0.29 | 11.2 | 0.3 | 0.14 | 4.5 | 0.1
PR: Progesterone Receptor (NR3C3), cDNA driver (protein, UniProt P06401 1-933, looked up) Progesterone receptor: MTELKAKGPRAPHVAGGPPSPEVGSPLLCRPAAGPFPGSQTSDTLPEVSAIPISLDGLLFPRPCQGQDPSDEKTQDQQSLSDVEGAYSRAEATRGAGGSSSSPPEKDSGLLDSVLDTLLAPSGPGQSQPSPPACEVTSSWCLFGPELPEDPPAAPATQRVLSPLMSRSGCKVGDSSGTAAAHKVLPRGLSPARQLLLPASESPHWSGAPVKPSPQAAAVEVEEEDGSESEESAGPLLKGKPRALGGAAAGGGAAAVPPGAAAGGVALVPKEDSRFSAPRVALVEQDAPMAPGRSPLATTVMDFIHVPILPLNHALLAARTRQLLEDESYDGGAGAASAFAPPRSSPCASSTPVAVGDFPDCAYPPDAEPKDDAYPLYSDFQPPALKIKEEEEGAEASARSPRSYLVAGANPAAFPDFPLGPPPPLPPRATPSRPGEAAVTAAPASASVSSASSSGSTLECILYKAEGAPPQQGPFAPPPCKAPGASGCLLPRDGLPSTSASAAAAGAAPALYPALGLNGLPQLGYQAAVLKEGLPQVYPPYLNYLRPDSEASQSPQYSFESLPQKICLICGDEASGCHYGVLTCGSCKVFFKRAMEGQHNYLCAGRNDCIVDKIRRKNCPACRLRKCCQAGMVLGGRKFKKFNKVRVVRALDAVALPQPVGVPNESQALSQRFTFSPGQDIQLIPPLINLLMSIEPDVIYAGHDNTKPDTSSSLLTSLNQLGERQLLSVVKWSKSLPGFRNLHIDDQITLIQYSWMSLMVFGLGWRSYKHVSGQMLYFAPDLILNEQRMKESSFYSLCLTMWQIPQEFVKLQVSQEEFLCMKVLLLLNTIPLEGLRSQTQFEEMRSSYIRELIKAIGLRQKGVVSSSQRFYQLTKLLDNLHDLVKQLHLYCLNTFIQSRALSVEFPEMMSEVIAAQLPKILAGMVKPLLFHKK | 178.8 | 1.6 | 1.63 | 17.9 | 1.1 | 1.14 | 1.09 | 91.7 | 1.1 | 52.9 | 0.8 | 0.84 | 0.98 | 37.53 | 1.0 | 1.00 | 31.5 | 1.0
hMR: Mineralocorticoid Receptor (NR3C2, MR), cDNA driver (protein, UniProt P08235 1-984, looked up) Mineralocorticoid receptor: METKGYHSLPEGLDMERRWGQVSQAVERSSLGPTERTDENNYMEIVNVSCVSGAIPNNSTQGSSKEKQELLPCLQQDNNRPGILTSDIKTELESKELSATVAESMGLYMDSVRDADYSYEQQNQQGSMSPAKIYQNVEQLVKFYKGNGHRPSTLSCVNTPLRSFMSDSGSSVNGGVMRAVVKSPIMCHEKSPSVCSPLNMTSSVCSPAGINSVSSTTASFGSFPVHSPITQGTPLTCSPNVENRGSRSHSPAHASNVGSPLSSPLSSMKSSISSPPSHCSVKSPVSSPNNVTLRSSVSSPANINNSRCSVSSPSNTNNRSTLSSPAASTVGSICSPVNNAFSYTASGTSAGSSTLRDVVPSPDTQEKGAQEVPFPKTEEVESAISNGVTGQLNIVQYIKPEPDGAFSSSCLGGNSKINSDSSFSVPIKQESTKHSCSGTSFKGNPTVNPFPFMDGSYFSFMDDKDYYSLSGILGPPVPGFDGNCEGSGFPVGIKQEPDDGSYYPEASIPSSAIVGVNSGGQSFHYRIGAQGTISLSRSARDQSFQHLSSFPPVNTLVESWKSHGDLSSRRSDGYPVLEYIPENVSSSTLRSVSTGSSRPSKICLVCGDEASGCHYGVVTCGSCKVFFKRAVEGQHNYLCAGRNDCIIDKIRRKNCPACRLQKCLQAGMNLGARKSKKLGKLKGIHEEQPQQQQPPPPPPPPQSPEEGTTYIAPAKEPSVNTALVPQLSTISRALTPSPVMVLENIEPEIVYAGYDSSKPDTAENLLSTLNRLAGKQMIQVVKWAKVLPGFKNLPLEDQITLIQYSWMCLSSFALSWRSYKHTNSQFLYFAPDLVFNEEKMHQSAMYELCQGMHQISLQFVRLQLTFEEYTIMKVLLLLSTIPKDGLKSQAAFEEMRTNYIKELRKMVTKCPNNSGQSWQRFYQLTKLLDSMHDLVSDLLEFCFYTFRESHALKVEFPAMLVEIISDQLPKVESGNAKPLYFHRK | 58.8 | 0.5 | 0.54 | 18.2 | 1.2 | 1.17 | 0.58 | 48.9 | 0.6 | 32.3 | 0.5 | 0.51 | 0.77 | 29.38 | 0.8 | 0.81 | 25.6 | 0.8

Source: patent US20110263454A1, “Methods of Identifying Functional Characteristics of Promoters, Transcription Modifying Proteins and Transcription Modulating Agents” (Salk Institute for Biological Studies, priority 2008, published 2011)
